In US20250263500A1 (BEIJING KANGHONG BIOMEDICAL, published 2025):
Changes are numbered by the printed parent chain.

Assays:
CD24 [1] = target: T1, CD24 (human, UniProt P25063 27-59); test: cell-based or functional assay
T1 chain (looked up): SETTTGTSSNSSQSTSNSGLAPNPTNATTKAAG

CD24 [2] = target: T1, CD24; test: cell-based or functional assay

B1: KH07 (antibody, mouse IgG2b, kappa, V domains shown)
VH: DVQLQESGPDLEKPSQSLSLTCTVTGYSITRGYSWHWIRQFPGNKLEWMGYIHYSGSTKYNPSLKSRVSFTRDTSKNQFFLQLNSLSPEDTATYYCSRGSDRAFDYWGQGTTLTVSS
VL: DIVMSQSPSSLAVSIGEKVTMNCQSSQSLLYSNNQKNYLVWYQQKPGQSPKLLIHWASTRESGVPDRFTGSGSGTDFTLTISSVKAEDLAVYYCQQYYIYPFTFGSGTKLEIKR
- Phagocytosis rate % (A549 tumor cells by human PBMC-derived M2 macrophages, antibody 5 µg/ml) (CD24 [1]): 10.1%

B2: KH16 (antibody, mouse IgG2a, kappa, V domains shown)
VH: DVQLQESGPDLVKPSQSLSLTCTVTGYSITSGYTWHWIRQFPGNKLEWMGYIQYSGSTNYNPSLKSRISFTRDTSKNQFFLQLNSVTTEDTATYYCARGTTGGLDYWGQGTTLTVSS
VL: DIVMSQSPSSLTVSVGEKITMSCKSSQSLLYSSDQKNYLAWYQQNPGQSPKLLIYWASTKASGVPDRFTGSGSGTDFTLTISSVKAEDLAVYYCQQYYIYPLTFGSGTKLEIKR
- Phagocytosis rate (%) (MCF-7 tumor cells by human PBMC-derived M2 macrophages, antibody 5 µg/ml) (CD24 [2]): 6.8%
- Phagocytosis rate % (A549 tumor cells by human PBMC-derived M2 macrophages, antibody 5 µg/ml) (CD24 [1]): 12.3%

B3: KH27 (antibody, mouse IgG2b, kappa, V domains shown)
VH: B2 VH with S31R, Y54F, N59K, I68F, F70I, G102T, G103A, T112S, L113V
VL: B1 VL with N33S
- Phagocytosis rate % (A549 tumor cells by human PBMC-derived M2 macrophages, antibody 5 µg/ml) (CD24 [1]): 10.6%

B4: KH06 (antibody, V domains shown)
VH: DVQLQESGPDLVNPSQSLSLTCTVTGYSISRGYSWHWLRRFPGNKLEWMGFIHYSGTTNYNPSLKSRISFTRDTSKNQFFLQLNSLTTEDTATYYCLRGTDRSFDYWGQGTTLTVSS
VL: B2 VL with T12V, T20S, S33N, D34N, N45I, K60R, A61E
- Phagocytosis rate (%) (MCF-7 tumor cells by human PBMC-derived M2 macrophages, antibody 5 µg/ml) (CD24 [2]): 4.3%
- Phagocytosis rate % (A549 tumor cells by human PBMC-derived M2 macrophages, antibody 5 µg/ml) (CD24 [1]): 10.9%

B5: KH12 (antibody, mouse IgG2a, kappa, V domains shown)
VH: DVQLQESGPDLVKPSHSFSLTCTVTGYSITRGYSWHWIRQFPGNKLEWMGYIHYSGNTNYNPSLKSRFSFTRDTSKNQFFLNLTSLTSEDTATYYCSRGSTWAFDHWGQGTILTVSS
VL: B2 VL with I19V, A40T, N45K, K60R, A61Y, L102F
- Phagocytosis rate % (A549 tumor cells by human PBMC-derived M2 macrophages, antibody 5 µg/ml) (CD24 [1]): 11.1%

B6: KH02 (antibody, mouse IgG2a, kappa, V domains shown)
VH: B5 VH with F18L, N57S, F68I
VL: B2 VL with T12A, S33N, D34N, N45I, W56L, K60R, A61E, Y98F, L102M, T103S
- Phagocytosis rate (%) (MCF-7 tumor cells by human PBMC-derived M2 macrophages, antibody 5 µg/ml) (CD24 [2]): 3%
- Phagocytosis rate % (A549 tumor cells by human PBMC-derived M2 macrophages, antibody 5 µg/ml) (CD24 [1]): 10.3%

B7: KH01 (antibody, mouse IgG2a, kappa, V domains shown)
VH: DVQLQESGPDLVKPSQSLSLTCTVTGHSITRGYSWHWIRQFPGNKLEWMGYIHHRGTTNYNPSLKSRISFTRDTSKNQFFLQLNSLTTEDTATYFCSRGTNSAFDYWGQGTTLTVSS
VL: DIQMTQTTSSLSASLGDRVTISCRASQDISNYLNWYQQKPDGTVKLLIYYTSRLHSGVPSRFSGSGSGTDYSLTISNLEQEDIATYFCQQGNTLPHTFGGGTKLEIKR
- Phagocytosis rate (%) (MCF-7 tumor cells by human PBMC-derived M2 macrophages, antibody 5 µg/ml) (CD24 [2]): 6.2%
- Phagocytosis rate % (A549 tumor cells by human PBMC-derived M2 macrophages, antibody 5 µg/ml) (CD24 [1]): 11.8%

B8: KH33 (antibody, mouse IgG2a, kappa, V domains shown)
VH: B7 VH
VL: QIVLTQSPAIMSASPGEKVTMTCSASSSISYMHWYQQKPGTSPKRWIYDTSKLASGVPARFSGSGSGTSYSLTISSMEAEDAATYYCHQRSSYPCTFGGGTKLEIKR
- Phagocytosis rate % (A549 tumor cells by human PBMC-derived M2 macrophages, antibody 5 µg/ml) (CD24 [1]): 18.3%

B9: KH21 (antibody, mouse IgG2a, kappa, V domains shown)
VH: B7 VH
VL: B2 VL
- Phagocytosis rate % (A549 tumor cells by human PBMC-derived M2 macrophages, antibody 5 µg/ml) (CD24 [1]): 10.2%

B10: KH29 (antibody, mouse IgG2b, kappa, V domains shown)
VH: B7 VH with S66N
VL: B1 VL with I15V, M21L, Q24K, N33K, L39S, V40A, H55Y, F102L, S106A, I112L
- Phagocytosis rate % (A549 tumor cells by human PBMC-derived M2 macrophages, antibody 5 µg/ml) (CD24 [1]): 8.95%

B11: KH05 (antibody, mouse IgG2b, kappa, V domains shown)
VH: B7 VH with R31N, R55S, T57S, F95Y, S97L, N101D, S102R, A103S
VL: B2 VL with T12V, T20S, S33N, D34N, N45I, K60R, A61E
- Phagocytosis rate (%) (MCF-7 tumor cells by human PBMC-derived M2 macrophages, antibody 5 µg/ml) (CD24 [2]): 3.2%
- Phagocytosis rate % (A549 tumor cells by human PBMC-derived M2 macrophages, antibody 5 µg/ml) (CD24 [1]): 10.4%

B12: KH14 (antibody, mouse IgG2b, kappa, V domains shown)
VH: B7 VH with R31N, R55S, T57S, F95Y, S97L, N101D, S102R, A103S
VL: B1 VL with I15V, K18N, V19I, N22T, Q24K, V40T, K45N, H55Y
- Phagocytosis rate (%) (MCF-7 tumor cells by human PBMC-derived M2 macrophages, antibody 5 µg/ml) (CD24 [2]): 3.4%
- Phagocytosis rate % (A549 tumor cells by human PBMC-derived M2 macrophages, antibody 5 µg/ml) (CD24 [1]): 11.2%

B13: KH03 (antibody, mouse IgG2a, kappa, V domains shown)
VH: B7 VH with T57S
VL: B2 VL with K60R, V91I
- Phagocytosis rate (%) (MCF-7 tumor cells by human PBMC-derived M2 macrophages, antibody 5 µg/ml) (CD24 [2]): 3.6%
- Phagocytosis rate % (A549 tumor cells by human PBMC-derived M2 macrophages, antibody 5 µg/ml) (CD24 [1]): 11.9%

B14: KH19 (antibody, mouse IgG2b, kappa, V domains shown)
VH: B7 VH with R31N, R55S, T57S, F95Y, S97L, N101D, S102R, A103S
VL: DIVMSQSPSSLAVSVGEKVTVSCKSSQSLLYSSDQKNYLTWYQQKPGQSPKLLIYWASTRESGVPDRFTGGGSGTDFTLTISSVRAEDLAVYYCQQYFIYPFTFGSGTKLEIKR
- Phagocytosis rate % (A549 tumor cells by human PBMC-derived M2 macrophages, antibody 5 µg/ml) (CD24 [1]): 10.3%

B15: KH10 (antibody, mouse IgG2a, kappa, V domains shown)
VH: B7 VH with T57S
VL: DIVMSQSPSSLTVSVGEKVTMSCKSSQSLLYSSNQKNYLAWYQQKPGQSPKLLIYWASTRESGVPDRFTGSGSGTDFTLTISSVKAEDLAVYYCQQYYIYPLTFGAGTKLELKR
- Phagocytosis rate % (A549 tumor cells by human PBMC-derived M2 macrophages, antibody 5 µg/ml) (CD24 [1]): 12.1%

B16: KH25 (antibody, mouse IgG2b, kappa, V domains shown)
VH: B7 VH with T57S
VL: B2 VL with T12V, T20S, S33N, D34N, N45I, K60R, A61E
- Phagocytosis rate (%) (MCF-7 tumor cells by human PBMC-derived M2 macrophages, antibody 5 µg/ml) (CD24 [2]): 6.5%
- Phagocytosis rate % (A549 tumor cells by human PBMC-derived M2 macrophages, antibody 5 µg/ml) (CD24 [1]): 11%

B17: KH04 (antibody, mouse IgG2a, kappa, V domains shown)
VH: B7 VH with T57S, S97L
VL: B2 VL
- Phagocytosis rate % (A549 tumor cells by human PBMC-derived M2 macrophages, antibody 5 µg/ml) (CD24 [1]): 12.8%
